{"source": "patent EP0811683B1", "about": "“Antibodies to human gastrin-releasing peptide precursor and use thereof” (Yamaguchi, Ken, priority 1996, dated 1997)", "experiment": "Comparison of stability of GRPs in the blood (serum, plasma, aprotinin-containing plasma; Fig. 3)", "assay_type": "in vitro ADME", "settings": "0, 1 and 6 hours, result in words", "description": "Stabilities in the blood of GRP(1-27) and GRP(31-98) were compared using antibodies to the above-prepared GRP(31-98) and antibodies to the conventional GRP(1-27).\nA small amount of GRP(1-27) or GRP(31-98) was added to a serum, plasma, or aprotinin - containing plasma, and the residual concentration of GRP(1-27) and GRP(31-98) was determined at 0, 1, and 6 hours from the addition, and the percentages of the residual concentration were obtained taking the concentration at the starting point (0 hour) as 100%.", "note": "Where no end group is shown, it is not given here."}
{"substance": "GRP(1-27): mature human gastrin-releasing peptide, active peptide of 27 amino acids (VPLPAGGGTVLTKMYPRGNHWAVGHLM; ends and bridges not checked; UniProt P07492 24-50, looked up)", "values": [{"measurement": "stability in serum or plasma (residual concentration)", "value": "degraded and disappeared"}]}
